Reference: patent US20240241109A1 (NATIONAL JEWISH HEALTH, published 2024)
Read-outs that look alike come from different tables or passages of the source.

Legend:
[1] = target: T1, wildtype SARS-COV-2 spike receptor binding domain (RBD) (SARS-COV-2 (wildtype), UniProt P0DTC2 320-541); assay: SPR (Biacore)
[2] = target: T1, wildtype SARS-COV-2 spike receptor …

B1: Etesevimab (LY-CoV016) (antibody, V domains shown)
VH: EVQLVESGGGLVQPGGSLRLSCAASGFTVSSNYMSWVRQAPGKGLEWVSVIYSGGSTFYADSVKGRFTISRDNSMNTLFLQMNSLRAEDTAVYYCARVLPMYGDYLDYWGQGTLVTVSS
VL: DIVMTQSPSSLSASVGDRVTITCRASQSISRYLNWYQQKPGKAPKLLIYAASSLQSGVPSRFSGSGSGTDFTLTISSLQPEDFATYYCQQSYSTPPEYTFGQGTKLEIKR
B1 showed a Kd [1] of 6.8 nM, a Kd [2] of 6.83 nM and a koff [2] of 0.00988 s⁻¹. For the same binder, the kon [2] was 1.46e+06 M⁻¹ s⁻¹.
